Measured values reported in patent US8323971B2, “Differentiation of pluripotent cells into primary germ layer progenitors” (Cambridge Enterprise Limited, priority 2006, dated 2012).

Tests used:
Format in all cases: cell-based, human
hESC derived EBs [1] = test: Quantitation of rosette structures in EBs; conditions: expressing EBs grown in CDM
Experimental: (§1) Lefty or Cerb-S expressing hESCs (as well as wildtype H9 and hSF-6 hESCs) were grown in 6 cm dishes (Corning), on mouse feeders. When confluent, hESCs were passaged using collagenase 1 mg/ml, as previously described (Schatten et al., 2005) and cultured in non-adherent conditions in CDM supplemented with either SU5402 (Calbiochem; 10 μM), SB431542 (Tocris; 20 μM), FGF-2 (R&D Systems; 12 ng/ml) or Noggin 200 ng/ml.
To investigate the development of EBs derived from Lefty or Cerb-S overexpressing hESCs, we grew the cells as EBs in suspension culture using CDM medium. As previously observed (Vallier et al., 2004a), wildtype control EBs grown in CDM developed almost exclusively as simple spheres with no apparent tissue organisation. […] Hematoxylin/Eosin staining of sectioned EBs confirmed that these folded structures found in Lefty overexpressing EBs were neuroectoderm-like, with internal epithelial rosettes. Lefty and Cerb-S expressing EBs contained respectively 5 times (Pb 0.05) and 2 times (not significant, N.S.) more epithelial rosettes than control EBs (FIG. 5).

hESCs = test: Quantitation of β-tubulin III positive cells in monolayer differentiation; conditions: expressing hESCs differentiated in CDM, monolayer, 24 days
Experimental: In some experiments, Wildtype and Lefty expressing hESCs were grown on fibronectin in FGF (12 ng/ml)/Activin (20 ng/ml) as a monolayer in the absence of a feeder layer (Vallier et al., 2005). When cells were 70-80% confluent medium was changed to either CDM only, CDM/FGF (12 ng/ml), CDM/Noggin 200 ng/ml, CDM/SU5402 and differentiated for 24 days.
To quantify the neurogenic potential of Lefty expressing hESCs, we cultured Lefty expressing hESCs in feeder-free conditions as a monolayer in CDM supplemented with Activin and FGF as described previously (Vallier et al., 2005). When cells reached 70-80% confluency, medium was changed to CDM only, CDM plus FGF (12 ng/ml) (CDM/FGF), CDM plus the BMP inhibitor Noggin (200 ng/ml) ([…]) (CDM/SU5402), and cells were cultured in these conditions for 24 days
The incidence of neural differentiation was determined by counting the number of β-tubulin III positive cells in random fields.

hESC derived EBs [2] = test: Real time qPCR / RT-PCR of neuroectoderm and pluripotency markers in EBs; conditions: expressing EBs compared to wildtype
Experimental: Four independent batches of WT and Lefty EBs were used for this analysis.
Five independent batches of DMSO- and SB431542-treated EBs were used for this analysis.
as §1
For some RT-PCR experiments, 50-100 ng of RNA were used for each RT-PCR reaction, using the OneStep RT-PCR kit according to manufacturer instructions. For real-time PCR, 1 μg RNA was reverse-transcribed using the Qiagen QuantiTect Reverse Transcription kit. 1/20-1/40 of each cDNA reaction was used for each real-time PCR reaction using the QuantiTect SYBR Green PCR Kit (Qiagen) according to manufacturer instructions. Relative quantification of gene expression was done by normalising the detected levels of gene of interest mRNA to those of the house-keeping GAPDH gene. All primers were purchased from Qiagen, with the exception of Xenopus Cerb-S: Forward 5′-[…]-3′ (SEQ ID NO: 1); Reverse 5′-ATGGTGCAGGGTAG TAGATG-3′ (SEQ ID NO: 2). Mouse Lefty2: Forward 5^r-[…]-3′ (SEQ ID NO: 3); Reverse 5′-[…]-3′ (SEQ ID NO: 4).

hESC derived EBs [3] = test: Incidence of beating structures in EBs plated in MEF media; conditions: over-expressing EBs in MEF medium containing FBS
Experimental: Lefty, Cerb-S expressing and wildtype EBs were plated in MEF media, and beating EBs were counted. Lefty expressing EBs generated fewer beating structures as compared to wildtype EBs (NS=not significant) (Scale bar=[…]).
In some experiments, hESCs were incubated in DMEM supplemented with 10% FCS and 1 mM glutamine (MEF media) to promote mesoderm formation. EBs were then grown for 12-16 days at 37° C. at […] before being harvested for histological or molecular marker analysis.
To evaluate further the differentiation potential of Lefty and Cerb-S overexpressing hESCs, EBs were cultured in MEF medium containing fetal bovine serum (FBS), which promotes the formation of mesoderm lineages including cardiomyocytes, as recognised by rhythmically beating structures. […] Nodal expressing EBs grown in these conditions were not seen to generate such beating structures, and instead maintained expression of the pluripotency marker Oct-4 (FIG. 7).

B1: Lefty: mouse Lefty2, Nodal inhibitor stably over-expressed in hESCs (protein, UniProt P57785 78-368, looked up)
Left-right determination …: FSQNFREVAGRFLMSETSTHLLVFGMEQRLPPNSELVQAVLRLFQEPVPRTALRRFERLSPHSARARVTIEWLRVREDGSNRTALIDSRLVSIHESGWKAFDVTEAVNFWQQLSRPRQPLLLQVSVQREHLGPGTWSAHKLVRFAAQGTPDGKGQGEPQLELHTLDLKDYGAQGNCDPEVPVTEGTRCCRQEMYLDLQGMKWAENWILEPPGFLTYECVGSCLQLPESLTIGWPFLGPRQCVASEMTSLPMIVSVKEGGRTRPQVVSLPNMRVQTCSCASDGALIPRGIDL
epithelial rosettes relative to control EBs (hESC derived EBs [1]): 5 times
β-tubulin III positive cells/field (hESCs): 69±13 cells/field
Nestin, Sox3 and Sox1 expression (real-time qPCR) (hESC derived EBs [2]): increased average levels
decrease of incidence of rhythmically contracting structures compared to wildtype EBs (hESC derived EBs [3]): ~79%
